Source: publication PMC10671485

Experiments:
Test in all cases: fluorescence anisotropy
[1] = tested on: POLRMT K402Q (acetyl mimic) (Homo sapiens); conditions: N=5; 20 mM Tris-HCl EDTA buffer (pH and salt not given), 3 nM labeled duplex, 0-20 nM POLRMT, 25 °C; fit with Hill slope
[2] = tested on: POLRMT T315E (phosphomimic) (Homo sapiens); conditions: N=5; 20 mM Tris-HCl EDTA buffer (pH and salt not given), 3 nM labeled duplex, 0-20 nM POLRMT, 25 °C; fit with Hill slope
[3] = tested on: POLRMT T993E (phosphomimic) (Homo sapiens); conditions: N=4; 20 mM Tris-HCl EDTA buffer (pH and salt not given), 3 nM labeled duplex, 0-20 nM POLRMT, 25 °C; fit with Hill slope
POLRMT WT (Homo sapiens) = conditions: no TFAM or TFB2M mentioned; N=7; 20 mM Tris-HCl EDTA buffer (pH and salt not given), 3 nM labeled duplex, 0-20 nM POLRMT, 25 °C; fit with Hill slope

With light strand promoter (LSP) duplex the Kd [1] was 3.02 nM, the Kd [2] was 1.55 nM and the Kd [3] was 2.87 nM. It also gave a Kd (POLRMT WT (Homo sapiens)) of 3.45 nM.
